Measured values: paper PMC4735815, “Protein unfolding as a switch from self-recognition to high-affinity client binding” (Nature Communications, 2016)

Target: the molecule itself
Test: cross-linking; in vitro UV crosslinking of purified Hsp33^M172S-BPA variants alone; dimers at ∼70 kDa

B1: Hsp33^M172SL202BPA (natural protein)
chain: MIMPQHDQLHRYLFENFAVRGELVTVSETLQQILENHDYPQPVKNVLAELLVATSLLTATLKFDGDITVQLQGDGPMNLAVINGNNNQQMRGVARVQGEIPENADLKTLVGNGYVVITITPSEGERYQGVVGLEGDTLAACLEDYFMRSEQLPTRLFIRTGDVDGKPAAGGSLLQVMPAQNAQQDDFDHLATLTETIKTEEFLTLPANEVLWRLYHEEEVTVYDPQDVEFKCTCSRERCADALKTLPDEEVDSILAEDGEIDMHCDYCGNHYLFNAMDIAEIRNNASPADPQVH
modifications: p-benzoyl-L-phenylalanine (BPA) at position 202
stoichiometry N: 2
